This note sets out measurements from article PMC11060673.

The test deals with His-LHP1 (recombinant Prunus mume Like Heterochromatin Protein 1) (Prunus mume (Japanese apricot)). As to the kind of experiment: SPR; BIAcore X-100; PmLHP1 immobilized on a CM5 sensor chip by amine coupling; target protein diluted in a gradient; steady-state affinity model. (In general: In SPR one partner is held on a chip, and binding of the other changes the refractive index at the surface.)

Usually Kd stands for the constant that tells how readily two partners part at equilibrium.

As to “Gst-AGL24 (recombinant Prunus mume AGAMOUS-like 24) (natural protein)”, the Kd is 20.6 µM.
